Experimental data: paper PMC9923014, “BIN2 phosphorylates the Thr280 of CO to restrict its function in promoting Arabidopsis flowering” (Frontiers in Plant Science, 2023)

Target: T1, MBP-BIN2 (Arabidopsis thaliana, UniProt Q39011 1-380)
T1 construct: also called BIN2-MBP; source: E. coli strain Transetta-DE3, purified
T1 sequence (looked up): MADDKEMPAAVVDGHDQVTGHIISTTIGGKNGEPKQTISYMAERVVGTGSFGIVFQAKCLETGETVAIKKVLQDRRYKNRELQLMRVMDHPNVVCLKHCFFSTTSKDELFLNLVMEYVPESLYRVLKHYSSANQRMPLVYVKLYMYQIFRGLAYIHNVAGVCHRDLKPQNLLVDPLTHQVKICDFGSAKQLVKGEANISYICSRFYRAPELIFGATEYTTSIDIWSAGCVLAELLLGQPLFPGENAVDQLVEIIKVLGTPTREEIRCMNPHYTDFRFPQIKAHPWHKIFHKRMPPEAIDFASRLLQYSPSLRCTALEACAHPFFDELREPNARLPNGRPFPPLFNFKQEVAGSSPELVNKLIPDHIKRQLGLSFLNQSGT
Test: pull-down; MBP pull-down on amylose resin; purified GST-CO incubated with MBP or MBP-BIN2 overnight at 4°C; 20 mM Tris pH 8.0, NaCl, 1 mM EDTA; immunoblot with anti-MBP and anti-GST
Details: both partners purified

B1: GST-CO (natural protein, Arabidopsis thaliana, UniProt Q39057 1-373, looked up)
chain: MLKQESNDIGSGENNRARPCDTCRSNACTVYCHADSAYLCMSCDAQVHSANRVASRHKRVRVCESCERAPAAFLCEADDASLCTACDSEVHSANPLARRHQRVPILPISGNSFSSMTTTHHQSEKTMTDPEKRLVVDQEEGEEGDKDAKEVASWLFPNSDKNNNNQNNGLLFSDEYLNLVDYNSSMDYKFTGEYSQHQQNCSVPQTSYGGDRVVPLKLEESRGHQCHNQQNFQFNIKYGSSGTHYNDNGSINHNAYISSMETGVVPESTACVTTASHPRTPKGTVEQQPDPASQMITVTQLSPMDREARVLRYREKRKTRKFEKTIRYASRKAYAEIRPRVNGRFAKREIEAEEQGFNTMLMYNTGYGIVPSF
notes: also called CO-GST; source: E. coli strain Transetta-DE3, purified
binding result: binds
